Entries after “also recorded” stand apart in the source; their conditions may differ.
System: MDA-MB-231 cell line
Test: Aptamer binding assay to MDA-MB-231 cells by flow cytometry
Set-up: species or system human
Conditions: biotin-conjugated aptamer
Protocol: DNA sequences for anti-human KIT aptamer (21) and mouse c-Kit aptamers (22) conjugated with biotin at 3′ were functionalized by short denaturation-renaturation step (95° C. 10 min, 5 min snap-cooling on ice). These DNA sequences were 5′-[…] […]-3′ (SEQ ID NO: 2) for human KIT, 5′-[…]-3′ (SEQ ID NO:3) for mouse c-Kit. These activated aptamers were used for binding assay to the cell lines by flow cytometry. For chimera preparation, human KIT-aptamer or mouse c-Kit-aptamer miR-26a chimera was assembled by three compartments of DNA/RNA hybrid sequences. The sequences were 5′-[…] […]/C3 (SEQ ID NO:4) spacer/CCUAUUCUGG-3′(SEQ ID NO:5) for human KIT aptamer+the part of passenger sequence for miR-26a-5p, 5′-[…]/C3 (SEQ ID NO:6) spacer/CCUAUUCUGG-3′ (SEQ ID NO:7) for mouse cKit aptamer+the part of passenger sequence for miR-26a-5p, 5′-GUUACUUGCACG/TEG (triethylene glycol)-Cholesterol-3′ (SEQ ID NO:8) for the part of sequence for miR-26a-5p+cholesterol, and 5′-[…]-3′ (SEQ ID NO:9) for guide sequence for miR-26a-5p (RNA sequences were represented as italic). The guide sequence for scramble control was […] (SEQ ID NO:10). To protect the oligonucleotide sequences from nuclease degradation, phosphorothioate bonds were introduced between the last 3 nucleotides at the 5′-end of DNA aptamers. The RNA sequences were modified with 2′-fluoro-uridines. […]

B1: human KIT aptamer: DNA aptamer against human KIT, SEQ ID NO:2, conjugated with biotin at 3′ for binding assay (nucleic acid)
DNA: GAGGCATACCAGCTTATTCAAGGGGCCGGGGCAAGGGGGGGGTACCGTGGTAGGACATAGTAAGTGCAATCTGCGAA
modifications: DNA, 3' {Biotin}, backbone not given here; further chemistry not fully specified
binding to MDA-MB-231 cell line: confirmed the binding; also recorded: nearly identical distribution of KIT expression

From patent US20200171068A1, “COMPOSITIONS COMPRISING APTAMERS AND NUCLEIC ACID PAYLOADS AND METHODS OF USING THE SAME” (Children's National Medical Center, priority 2017, published 2020)
